Results published in patent US11781164B2, “Demethylation of reticuline and derivatives thereof with fungal cytochrome P450” (priority 2017, dated 2023).

Columns and labels:
[1] = system: Cunninghamella echinulata ATCC 9244; assay: Fungal bioconversion of thebaine to northebaine by Cunninghamella echinulata cultures; assay type: cell-based; conditions: 0.5 mg/ml thebaine added after 48 h of growth; eleven days after thebaine addition; supernatant, LC-MS
Protocol: (§1) Cunninghamella echinulata ATCC 9244 was propagated on potato dextrose agar at room temperature. Mature cultures on plates (7-10 days) were used for the preparation of concentrated spore suspensions. Spores were harvested by flooding the lawn culture with a sterile solution containing 0.9% sodium chloride and 0.01% Tween 80 (10 ml/plate), scratching them from the hyphae with the aid of a sterile loop and filtering the suspension through sterile cotton to remove hyphal fragments. Thamnostylum piriforme ATCC 8992 was propagated on malt extract agar (CM0059) at room temperature and spore suspensions were prepared as indicated above. […]
(§2) Media was inoculated with 0.25 ml of freshly-prepared spore suspensions. […] Eleven days after thebaine addition, supernatants were collected and analyzed by LC-MS. […] Thebaine and northebaine were monitored in the supernatants, reaching a conversion level of 25% on day 12 after substrate addition (FIG. 2).

[2] = system: Thamnostylum piriforme ATCC 8992; assay: Fungal bioconversion of thebaine to northebaine by Thamnostylum piriforme cultures; assay type: cell-based
Protocol: as §1, §2

codeine = assay: In vitro N-demethylation of codeine by mammalian cytochrome P450s in crude yeast cell lysates; conditions: crude cell extract with human CPR and cytochrome b5; 0.2 mM substrate, pH 7, 30° C., approximately 20 hours; compared to negative control strain without cytochrome P450s
thebaine [3] = assay: In vitro N-demethylation of thebaine by mammalian cytochrome P450s in crude yeast cell lysates; conditions: crude cell extract with human CPR and cytochrome b5; 0.2 mM substrate, pH 7, 30° C., approximately 20 hours; compared to negative control strain without P450s
oripavine [4] = assay: In vitro N-demethylation of oripavine by mammalian cytochrome P450s in crude yeast cell lysates; conditions: crude cell extract with human CPR and cytochrome b5; 0.2 mM substrate, pH 7, 30° C., approximately 20 hours; compared to negative control strain without cytochrome P450s
salutaridine = assay: In vitro N-demethylation of salutaridine by mammalian cytochrome P450s in crude yeast cell lysates; conditions: crude cell extract with human CPR and cytochrome b5; 0.2 mM substrate, pH 7, 30° C., approximately 20 hours; compared to negative control strain without cytochrome P450s
thebaine [5] = assay: Conversion of thebaine by demethylases heterologously expressed in Aspergillus nidulans; conditions: 0.5 mM thebaine, Minimal Medium pH 7, 84 hours; supernatant, LC-MS
thebaine [6] = assay: In planta conversion of thebaine by transient expression of demethylases and CPRs in Nicotiana benthamiana leaves; conditions: co-expressed with CPR_DN10898_c0_g1_i1_co or Cel_CPR_co; leaves re-infiltrated with 0.5 mM thebaine after 4 days, measured 1 day after
thebaine [7] = assay: Bioconversion of thebaine (N-demethylation to northebaine) by S. cerevisiae expressing cytochrome P450s and CPRs, LC-MS; conditions: 0.5 mM thebaine
oripavine [8] = assay: Bioconversion of oripavine (N-demethylation to nororipavine) by S. cerevisiae expressing cytochrome P450s and CPRs, LC-MS; conditions: 0.5 mM oripavine
[9] = pH 7, 72 h, co-expressed with native or codon-optimized T. piriforme CPRs or Cel_CPR
[10] = pH 7, co-expressed with Cel_CPR_co, 72 h

## COC1=CC=C2[C@H]3Cc4ccc(OC)c5c4[C@@]2(CCN3C)[C@H]1O5 [Thebaine, thebaine]
[1]
  conversion of thebaine to northebaine: 6%
[2]; 0.5 mg/ml thebaine added after 48 h of growth, eleven days after thebaine addition, supernatant, LC-MS
  conversion of thebaine to northebaine: 16%
[2]; new T. piriforme cultures, day 12 after substrate addition
  conversion level of thebaine to northebaine: 25%

## Hs_CYP3A4: Cytochrome P450 3A4 (P08684), Homo sapiens
codeine
  in vitro N-demethylation activity on codeine: detected
Thebaine [3]
  in vitro N-demethylation activity on Thebaine: detected
Oripavine [4]
  in vitro N-demethylation activity on oripavine: detected
salutaridine
  in vitro N-demethylation activity on salutaridine: detected

B1: Mc_S2JT25_co: codon-optimized cytochrome P450 S2JT25 from Mucor circinelloides (protein)
chain: MTLIASYNQTLLERVISVVRKNKTSYIGMAILCVVLQQVYASFTVPPKYLRRYPTVSFFEMMKSFYRKESVLNRNKRLVTPLTNAGHGFYVCRIPLDWTIYVTDPIAAKTLLLKTDNFPKSHAIFGALGESSPAVKFMGSENVAVSNGEMWKKQRKIMNPAFHRSQPVKLFGGVMPDLFALIDQDPEHVFVAPRMKSFALDALGLSAFGFDFQSLKGDPEGWTSKYNTVISTLFNPFINLFAKYDFLIKYISPERRRVIKATDEFNVMLSNLADKRRQEILDGEKKDMAENEKDLLTLMIEADIREGVETTTTELRHNMAIFFLAGHDTTANTLALCLYQLAKHKHVQKKARQEVLDILGDDPCDVTPTLEDLKKLNYVNMVIKENLRRNSPVDNLMARDTHQDIDLNGTFIPKGSKVTVNVASIHLNPKIWHDPESFIPERFEPGGEYDGHDGFTWIPFSNGSRQCLGLNFSLTEQRVVLCMLLKRYEIEIPKDSIHYNEIVFDKPFTFAPQSLELSFKKRY
modifications: codon-optimized; Mucor circinelloides
Thebaine [5]
  northebaine production in Aspergillus nidulans vs vector control: production of northebaine was achieved
Thebaine [6]
  northebaine levels in N. benthamiana leaves vs negative P19 control: clear increase in northebaine
Thebaine [7]; [9]
  northebaine amount compared to Lr_P450_co: yielded the highest northebaine amount
Oripavine [8]; [9]
  amount of nororipavine compared to Lr_P450_co: resulted in the highest amount of nororipavine

B2: Hs_CYP3A5: Cytochrome P450 3A5 (P20815), Homo sapiens (protein, UniProt P20815 1-502, looked up)
Cytochrome P450 3A5: MDLIPNLAVETWLLLAVSLVLLYLYGTRTHGLFKRLGIPGPTPLPLLGNVLSYRQGLWKFDTECYKKYGKMWGTYEGQLPVLAITDPDVIRTVLVKECYSVFTNRRSLGPVGFMKSAISLAEDEEWKRIRSLLSPTFTSGKLKEMFPIIAQYGDVLVRNLRREAEKGKPVTLKDIFGAYSMDVITGTSFGVNIDSLNNPQDPFVESTKKFLKFGFLDPLFLSIILFPFLTPVFEALNVSLFPKDTINFLSKSVNRMKKSRLNDKQKHRLDFLQLMIDSQNSKETESHKALSDLELAAQSIIFIFAGYETTSSVLSFTLYELATHPDVQQKLQKEIDAVLPNKAPPTYDAVVQMEYLDMVVNETLRLFPVAIRLERTCKKDVEINGVFIPKGSMVVIPTYALHHDPKYWTEPEEFRPERFSKKKDSIDPYIYTPFGTGPRNCIGMRFALMNMKLALIRVLQNFSFKPCKETQIPLKLDTQGLLQPEKPIVLKVDSRDGTLSGE
codeine
  in vitro N-demethylation activity on codeine: detected
Thebaine [3]
  in vitro N-demethylation activity on Thebaine: detected
Oripavine [4]
  in vitro N-demethylation activity on oripavine: detected
salutaridine
  in vitro N-demethylation activity on salutaridine: detected

B3: Lr_P450_co: P450 from Lichtheimia ramosa, codon optimized for S. cerevisiae (protein, listed as Lichtheimia ramosa)
chain: MTEIKEHIYRYRHYIGVAAAVALVCQQVYYRIFRIPKNLRHIPAIPYGQQLKALRSDEALTSRTKRLVFPLLSKCNGVYLNRMPFKWTIYVADPEIARAILFKPEFGHKTRSVTDSLDKNSSLFEFVGDDNIAIVNGHEWKEQRKIMNPAFHRATPVGMFGSLMPKVFRLVEEQPTLPALDLMQKLTLDALGKSVFGFEFGALDDPDSVWVKTYRQVFDSFTDVFSLVFPRLDPIYRYFSAKHREQYNAVYKLIDLLDGMADKKRSMLQDASNSDIKDVPDHEKDLLQLMLEAELRGEGSWTKRELRHNMAIFFVAGQDTTSHALTFCLYLLAKNQDIQKKAREEILNVFGDEPKDVFPTLEDCKKLNYLDMVIKESMRIYPPANDVLARDVNEDLNVKGVFIPKGSMVSVDIHALHHRPDLWHEPDKFNPDRFLPGGEHDSHVGVTYAPFSSGSRQCIALKFATMQQRVVLSMLLRKYEWELPKDSKHKDSIQFQIPFNIAPKDLELTFHKRY
modifications: codon-optimized
Thebaine [5]
  northebaine production in Aspergillus nidulans vs vector control: not apparent
Thebaine [6]
  northebaine levels in N. benthamiana leaves vs negative P19 control: clear increase in northebaine
Thebaine [7]; pH 7, 72 h, co-expressed with CPR_DN5866_c0_g1_i1_Cd9, CPR_DN10898_c0_g1_i1_1A or Cel_CPR_co (at least one of the tested CPRs)
  activity towards thebaine, converting it to northebaine: performing the best conversion of thebaine into northebaine
Thebaine [7]; [10]
  northebaine titer: more than 7 mg/L
  northebaine titers higher compared to P450_DN15259_co: 2 fold

B4: Ps_CODM_co: O-demethylase D4N502 from Papaver somniferum, codon optimized; positive control (protein, listed as Papaver somniferum)
chain: METPILIKLGNGLSIPSVQELAKLTLAEIPSRYTCTGESPLNNIGASVTDDETVPVIDLQNLLSPEPVVGKLELDKLHSACKEWGFFQLVNHGVDALLMDNIKSEIKGFFNLPMNEKTKYGQQDGDFEGFGQPYIESEDQRLDWTEVFSMLSLPLHLRKPHLFPELPLPFRETLESYLSKMKKLSTVVFEMLEKSLQLVEIKGMTDLFEDGLQTMRMNYYPPCPRPELVLGLTSHSDFSGLTILLQLNEVEGLQIRKEERWISIKPLPDAFIVNVGDILEIMTNGIYRSVEHRAVVNSTKERLSIATFHDSKLESEIGPISSLVTPETPALFKRGRYEDILKENLSRKLDGKSFLDYMRM
modifications: codon-optimized
Thebaine [6]
  conversion of thebaine into oripavine in N. benthamiana leaves vs negative control: capable of converting thebaine into oripavine
  northebaine levels in N. benthamiana leaves vs negative P19 control: not apparent

B5: P450_DN12791_co: P450_DN_12791 from T. piriforme, codon optimized for S. cerevisiae (pEV32227) (protein)
chain: MAILQNLVLQSDQRHLGVVTAAVFLSAYALYRHESKKELGNECPTVPYTNPMFGSTDEYRKNPAAFVEKWSAALGPVFRVHIFGRMQTVVSGRYVREVLFNDNFSFVEGIRTRFDLRLLTGIPNSHLNDKDVREVVVKSLTAQMKKYTPRAVHYLSVGLQEALGDLKDPRTLDNLFLTVQNMVAKASASIFVGEELCNNIELVDTFKHVTSDIGSEIRLDNTWLEFFKTINQIRMWYVGKHSPRVTKHRRQLIQAMAPEIDRRLQGLAGNDPSWTRPEDILQEIMENYPSPSTVPADIYTYYANWMIVLIFASVHTTTEHATIVLYRLLQQPELIDELLQEQKEALGQGTVFTGEVIRKLVKLDSVCRESLRIKNEYFGLPHRNMSHENISLSNGVVIKPGDNVMLNVWTNHHDSDLQKDVHGNHDKFEPFRYVNADRPATKIGDDYLIFGEGKHACPGRWFALQEIKTIVSVLIRDYTLTPCGPIVFPSGTSTGIPSGEVTIQRKSEV
modifications: codon-optimized; Thamnostylum piriforme
Thebaine [5]
  northebaine production in Aspergillus nidulans vs vector control: production of northebaine was achieved
Thebaine [7]; pH 7, co-expressed with Cel_CPR_co, 72 h, no significant difference between codon optimized and non-codon optimized versions
  thebaine N-demethylation activity: lower
Oripavine [8]; [10]
  nororipavine titers: highest nororipavine titers
